# According to the supplement of paper PMC9732359:
# ± gives the uncertainty stated by the source.
# Assay: protein stability index of a GFP-peptide fusion (yeast GPS) (PSI 1-4); higher = more stable; sorted into four equal gates, so the index is relative within each strain
# Settings: pdr5∆
# Summary of the method: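 The protein stability index combines read frequencies across sorting gates, each weighted by its gate number and then summed. To obtain those frequencies, a pooled yeast library of GFP fusions to tiled 17-residue yeast protein peptides, on a plasmid also expressing Cherry, was grown to mid-log phase in leucine-free medium. The cells were sorted into four equal gates by GFP/Cherry ratio before plasmid amplification by PCR and Illumina sequencing.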
row,Sequence,protein stability index
1,TCVAKKGIAKEHAKWGP [RPB3],3.28 ± 0.08

# Same assay, conditions: san1∆
row,Sequence,protein stability index
1,SPDGRNFQVEYAVKAVE [PRE10],2.65 ± 0.07
2,SPDSTVNRSVVVSAVGE [YAR002W/NUP60],3.28 ± 0.063
3,SPEGRLFQVEYSLEAIK [PUP2],2.75 ± 0.12
4,SPFLMGHPMTKSVYETP [SEC65],2.83 ± 0.083
5,SPIGFTNSPQISVTRQV [SMC2],2.95 ± 0.043
6,SPIKNGSCTRQLAGKSG [YOR098C/NUP1],2.35 ± 0.07
7,SPKPYAVKYGLNHVVSL [RPL8B],2.09 ± 0.092
8,SPLLESDSIEKIVEIDR [PUP2],2.59 ± 0.15
9,SPMINSTSSGKVSYAVK [SNM1],2.32 ± 0.097
10,SPQAVSSFVRQELAKSI [PRE1],2.1 ± 0.19
11,SPTSPSYSPTSPSYSPT [RPO21],2.72 ± 0.036
12,SPYERRLIDLIRNSGEK [RPL36A],1.68 ± 0.16
13,SQIIPLMKKACYVGLLT [SNU114],1.75 ± 0.07
14,SQKHNGRILKWLWPLCR [CDC53],1.35 ± 0.094
15,SQLKKSKAQQKTAEQVA [RPL7A],2.58 ± 0.1
16,SQLKKTKAQQKTAEQIA [RPL7B],2.95 ± 0.067
17,SQLQEQFNKILPEPTEG [FAS1],2.64 ± 0.076
18,SQRPGARILARSERKRT [ITC1],3.07 ± 0.21
19,SQSKGTVWSANFEYDLS [YOR098C/NUP1],2.69 ± 0.28
20,SQSLTSILVIVQKILPL [SWI1],1.48 ± 0.066
21,SQSRSAKAGLTFPVGRV [HTA1],2.92 ± 0.042
22,SQTNNSFLSGVKSLLSE [SIR4],3.14 ± 0.046
23,SRDKTIKVWTIKGQCLA [ASC1],2.12 ± 0.11
24,SRFSPEKLAVSALEQAI [YGL100W/SEH1],1.9 ± 0.077
25,SRGNGGKKVLNKNQLLK [POP1],2.53 ± 0.14
26,SRKQKVIKTLTVDVSSP [RPL22B],2.36 ± 0.12

row,Sequence,protein stability index
1,SRLLDILEDYCYFRDFE [ISW2],1.5 ± 0.12
2,SRPEYSCTFWSDKESNA [YJL039C/NUP192],2.51 ± 0.071
3,SRQKSGLFDSFTNGVLA [YML031W/NDC1],1.92 ± 0.12
4,SRQVQKRPRSRTLTAVH [RPS7A],2.41 ± 0.037
5,SRRFKNGFQTGSASKAS [RPL37A],3.26 ± 0.17
6,SRRLMKSLEDLSCQYDN [RPO31],1.36 ± 0.2
7,SRSSVCVKAIEALFQSR [YCG1],3.04 ± 0.077
8,SSATIVLCLTRSSYMLE [YCG1],1.91 ± 0.048
9,SSDDRVKVLAATNRVDV [RPT5],2.88 ± 0.15
10,SSFKEDCLSFAPTLSQT [SSN2],3.03 ± 0.086
11,SSFSLTFFPRCIIAVSC [POP1],2.07 ± 0.054
12,SSGDFDDNNNNNNNNNN [GRR1],3.22 ± 0.063
13,SSISWKNIAQCLSDYTK [YJL039C/NUP192],1.87 ± 0.076
14,SSKKSKRLDKVGKKKGG [LRP1],1.91 ± 0.12
15,SSKYAYMMNSQSPRGKI [YLR018C/POM34],2.75 ± 0.044
16,SSLFNNSTNSNTTKPAF [YJL041W/NSP1],2.61 ± 0.042
17,SSLHSPTSDEPVPESAG [SRB4],2.95 ± 0.063
18,SSLLYTYDENDDFFKEL [ESC2],2.62 ± 0.15
19,SSLNGTNAKIPQFDSTQ [SSN3],2.98 ± 0.067
20,SSNISPEQVYSLLLTNV [ARP7],2.43 ± 0.04
21,SSNPNSSLHSPTSDEPV [SRB4],2.99 ± 0.063
22,SSSSLECATCHGNLASC [RPO31],3.05 ± 0.049
23,SSTIDAPAFHTSGKVEL [SRB8],2.94 ± 0.18
24,SSTLGIDLEDIKEELTK [PCI8],3.17 ± 0.1
25,SSVIQNYDIITASSLAH [YML103C/NUP188],1.98 ± 0.092
26,SSVMSSPRVEKRSFSST [YOR098C/NUP1],2.44 ± 0.052

row,Sequence,protein stability index
1,STFRLNLSVTSPYNADF [RPO21],2.6 ± 0.075
2,STFTKHLIKCFFKITLQ [ITC1],1.51 ± 0.058
3,STGLKSASDALKGRVVE [RPS1A],3.48 ± 0.044
4,STIITKAINQELEDVAV [YCS4],2.72 ± 0.057
5,STKKIQVATKYASLKLP [YMR129W/POM152],1.55 ± 0.069
6,STKKKILGIHTSKMNLS [RPT2],3.42 ± 0.071
7,STLHMLGYTHIAINFTV [RPP1],1.45 ± 0.067
8,STLKSFFTNPNKKRPSS [YOR098C/NUP1],3.08 ± 0.043
9,STLTTISGNPPLLYNSL [SRB5],2.49 ± 0.043
10,STLYKYLKESKRKYDEI [SWI3],3.21 ± 0.17
11,STPNFGGNSNKSPPQFF [SIN4],2.89 ± 0.03
12,STRKTPNGEGSKTWETY [RPS20],3.07 ± 0.11
13,STRVEFEKLYSDLMKFL [FAS2],3.26 ± 0.15
14,STSENKISEGSAKPTFS [YOR098C/NUP1],2.8 ± 0.14
15,STSKFESQYPIVTEQPS [SWP82],2.41 ± 0.054
16,STSNALKVLSGDEGYNE [SNF12],3.04 ± 0.059
17,STSNTPSPPNVIITDGT [YDL088C/ASM4],2.9 ± 0.035
18,STSSGKVSYAVKKPQKS [SNM1],2.01 ± 0.17
19,STTNSDVSLLLQRDLFI [RGR1],2.81 ± 0.067
20,STVIEEFTLFMDIAERI [YGL172W/NUP49],2.47 ± 0.049
21,SVAKIRFPETMDETQTR [RPO21],3.66 ± 0.063
22,SVAVHFQYVIDESSGTS [SMC4],2.01 ± 0.074
23,SVERGRKRAHSLVSTQS [REC8],3.26 ± 0.047
24,SVFYNIANMVLPPEKIY [SIR2],1.81 ± 0.06
25,SVGLPSKVASSLVIIIL [ECM29],2.28 ± 0.064
26,SVGNLEVVKSLYDRPLK [NAS6],3.12 ± 0.075

row,Sequence,protein stability index
1,SVNFFVSLLKKNWQNVG [RPL1A],1.25 ± 0.14
2,SVNPAMLPGSSNGGGKV [RPO31],3.07 ± 0.08
3,SVPTNSADAPNPNNVNV [RET1],3.26 ± 0.049
4,SVTEIPLKLSGEGPFTV [YMR129W/POM152],2.78 ± 0.078
5,SVVRGNTFKVLSKFFFF [COB],2.44 ± 0.093
6,SWEEGTRQSSRNFDTHE [MCD1],3.31 ± 0.1
7,SYEVEHVIQIPLNKPLL [TAF14],2.52 ± 0.06
8,SYFLQERYFDCCTKFFT [PCI8],1.76 ± 0.08
9,SYHNGNLKGRPYTGWVD [FAS2],3.08 ± 0.1
10,SYIGTIIVKDKSNDSEG [POP1],1.45 ± 0.093
11,SYINVTFRAVVFKPFLG [RPC25],2.26 ± 0.079
12,SYLEERERQVNEKLADL [RPC53],3.12 ± 0.17
13,SYRNGMASYMLNSFAFE [YJR042W/NUP85],2.6 ± 0.1
14,SYVAVLGMGKAVEKTLA [POP7],1.82 ± 0.11
15,SYVETLDSMIELFKDYK [MED1],3.34 ± 0.052
16,SYYGIVCLMQISTRERD [RRP6],1.21 ± 0.16
17,TAASVFKELCYENKDNL [PRE3],2.38 ± 0.058
18,TAFKATVFFLIRVAETR [YJL039C/NUP192],1.12 ± 0.12
19,TAFKSSPFGGSSHAKGI [RPS23A],3.02 ± 0.048
20,TAGKTSVKSARTSTRGR [SNF2],3.12 ± 0.042
21,TAGNWVASQTVKKVIEI [PRE2],2.77 ± 0.069
22,TAIAHSIREQVHMYHKS [SNF5],2.23 ± 0.069
23,TAIDKNGNITYSEEPRE [FAS2],3.12 ± 0.076
24,TASSLAHDYNNDQDMFT [YML103C/NUP188],3.17 ± 0.046
25,TAVAFWSWDIAVDNCAI [HRT1],1.52 ± 0.12
26,TCILHGPVAAQFTKVID [FAS1],1.94 ± 0.081
